Laboratory results as given in patent US20220265856A1 (MODERNATX, published 2022).
Values belong to the binder of their own block, whether it stands above or below them.

Assays:
[1] = molecular target: T1, human propionyl-CoA carboxylase alpha (PCCA), wild-type isoform 1 (human, UniProt P05165 53-728); test: immunofluorescence co-localisation with mitochondria in GM371 PCCA-deficient patient fibroblasts, 24 h after co-transfection of PCCA_18 and PCCB_18 mRNAs
T1 construct: Made inside transfected cells or mouse liver from mRNA encoding the full-length precursor; also called hPCCA; propionyl-CoA carboxylase alpha subunit
T1 sequence: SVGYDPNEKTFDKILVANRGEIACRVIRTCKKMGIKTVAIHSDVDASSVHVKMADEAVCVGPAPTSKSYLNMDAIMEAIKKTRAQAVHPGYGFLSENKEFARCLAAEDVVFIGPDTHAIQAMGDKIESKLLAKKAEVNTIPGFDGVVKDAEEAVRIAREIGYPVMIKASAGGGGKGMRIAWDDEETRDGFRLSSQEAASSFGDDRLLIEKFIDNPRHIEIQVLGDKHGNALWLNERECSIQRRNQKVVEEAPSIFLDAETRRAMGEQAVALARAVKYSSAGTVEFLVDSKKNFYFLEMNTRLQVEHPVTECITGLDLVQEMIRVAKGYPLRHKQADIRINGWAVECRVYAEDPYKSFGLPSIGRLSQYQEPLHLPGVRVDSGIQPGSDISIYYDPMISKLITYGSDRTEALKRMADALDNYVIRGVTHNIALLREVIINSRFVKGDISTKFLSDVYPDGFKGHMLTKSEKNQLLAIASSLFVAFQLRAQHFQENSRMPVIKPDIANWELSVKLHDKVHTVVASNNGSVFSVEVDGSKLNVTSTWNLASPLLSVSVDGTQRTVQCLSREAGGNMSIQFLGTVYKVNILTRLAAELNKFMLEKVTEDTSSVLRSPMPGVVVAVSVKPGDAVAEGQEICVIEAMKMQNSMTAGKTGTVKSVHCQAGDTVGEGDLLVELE
Method: The subcellular co-localization of PCCA and PCCB proteins was examined in GM371 PCCA-deficient patient fibroblasts (9,000 cells/well on a 96-well plate) 24 hours after transfection with a total of 25 ng of 1-methyl-pseudouridine modified mRNAs encoding human PCCA (PCCA_18; SEQ ID NO: 35) and PCCB (PCCB_18; SEQ ID NO: 46), or a luciferase control. Commercial anti-PCCA monoclonal antibody (Santa Cruz #sc-393527) and anti-PCCB polyclonal antibody (Novus #NBP1-85886) were used to detect mRNA-expressed PCCA and PCCB using immunofluorescence microscopy. Mitotracker Red was used to confirm the identity of mitochondria and DAPI was used to stain nuclei. Image analysis was performed on a Zeiss ELYRA imaging system. […] There was no PAAC or PCCB staining in negative control cells that were transfected with mRNA encoding luciferase.

[2] = molecular target: T2, human propionyl-CoA carboxylase beta (PCCB), wild-type isoform 1
T2 chain: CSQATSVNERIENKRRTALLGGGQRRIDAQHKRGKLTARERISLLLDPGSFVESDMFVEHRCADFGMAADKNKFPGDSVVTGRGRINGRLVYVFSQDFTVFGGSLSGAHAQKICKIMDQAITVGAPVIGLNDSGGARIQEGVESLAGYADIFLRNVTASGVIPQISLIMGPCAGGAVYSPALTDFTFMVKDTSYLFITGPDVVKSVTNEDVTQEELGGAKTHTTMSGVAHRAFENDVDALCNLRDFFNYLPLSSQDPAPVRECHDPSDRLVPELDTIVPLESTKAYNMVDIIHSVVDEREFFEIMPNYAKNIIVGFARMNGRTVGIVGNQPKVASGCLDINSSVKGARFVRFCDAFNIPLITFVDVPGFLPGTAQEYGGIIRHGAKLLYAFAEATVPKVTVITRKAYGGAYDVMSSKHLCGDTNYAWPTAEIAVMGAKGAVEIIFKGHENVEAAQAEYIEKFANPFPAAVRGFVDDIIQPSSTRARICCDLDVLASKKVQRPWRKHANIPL

binding result [1]: binds
B1: human propionyl-CoA carboxylase beta (PCCB), wild-type isoform 1 (enzyme)
chain: T2 chain
notes: Made inside transfected cells or mouse liver from mRNA encoding the full-length precursor; also called hPCCB; propionyl-CoA carboxylase beta subunit

B2: human propionyl-CoA carboxylase alpha (PCCA), wild-type isoform 1 (protein)
chain: T1 sequence
PCC activity in GM371 PCCA-deficient patient fibroblasts at different PCCA:PCCB mRNA molar ratios, 24 h and 40 h [2]: a PCCA:PCCB molar ratio of 1:1 (A:B ratio of 1:1) increased PCC activity the greatest in PCCA-deficient patient fibroblasts | PCC activity in GM1298 PCCB-deficient patient fibroblasts at different PCCA:PCCB mRNA molar ratios, 24 h [2]: a PCCA:PCCB molar ratio of 1:1 (A:B ratio of 1:1) increased PCC activity the greatest in PCCB-deficient patient fibroblasts | PCC enzyme activity (radiometric assay, MicroBeta readout/ug protein) in PCCA- and PCCB-deficient patient fibroblasts: co-transfection of PCCA and PCCB mRNAs at 1:1 against either mRNA alone [2]: 5-25 fold higher
